According to PMC6436931, “Activation of the Endonuclease that Defines mRNA 3′ Ends Requires Incorporation into an 8-Subunit Core Cleavage and Polyadenylation Factor Complex” (Molecular Cell, 2019):

T1: Hrp1 (CF IB) (Saccharomyces cerevisiae, UniProt Q99383 1-534)
T1 sequence: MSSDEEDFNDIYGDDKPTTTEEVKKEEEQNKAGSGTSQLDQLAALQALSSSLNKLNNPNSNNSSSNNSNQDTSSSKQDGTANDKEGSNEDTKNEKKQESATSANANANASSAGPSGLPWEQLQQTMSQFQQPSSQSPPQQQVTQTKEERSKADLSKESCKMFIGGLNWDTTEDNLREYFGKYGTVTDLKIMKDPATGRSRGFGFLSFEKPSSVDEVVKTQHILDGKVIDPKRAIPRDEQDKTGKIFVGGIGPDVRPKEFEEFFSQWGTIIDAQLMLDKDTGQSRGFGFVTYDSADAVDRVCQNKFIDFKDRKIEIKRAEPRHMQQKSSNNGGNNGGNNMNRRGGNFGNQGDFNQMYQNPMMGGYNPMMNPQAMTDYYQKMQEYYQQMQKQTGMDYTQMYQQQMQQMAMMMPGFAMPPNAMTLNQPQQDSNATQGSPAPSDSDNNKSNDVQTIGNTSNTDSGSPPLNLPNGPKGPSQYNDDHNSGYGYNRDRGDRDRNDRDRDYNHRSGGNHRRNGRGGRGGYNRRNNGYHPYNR

T2: Cft2 (Saccharomyces cerevisiae, UniProt Q12102 1-859)
T2 sequence: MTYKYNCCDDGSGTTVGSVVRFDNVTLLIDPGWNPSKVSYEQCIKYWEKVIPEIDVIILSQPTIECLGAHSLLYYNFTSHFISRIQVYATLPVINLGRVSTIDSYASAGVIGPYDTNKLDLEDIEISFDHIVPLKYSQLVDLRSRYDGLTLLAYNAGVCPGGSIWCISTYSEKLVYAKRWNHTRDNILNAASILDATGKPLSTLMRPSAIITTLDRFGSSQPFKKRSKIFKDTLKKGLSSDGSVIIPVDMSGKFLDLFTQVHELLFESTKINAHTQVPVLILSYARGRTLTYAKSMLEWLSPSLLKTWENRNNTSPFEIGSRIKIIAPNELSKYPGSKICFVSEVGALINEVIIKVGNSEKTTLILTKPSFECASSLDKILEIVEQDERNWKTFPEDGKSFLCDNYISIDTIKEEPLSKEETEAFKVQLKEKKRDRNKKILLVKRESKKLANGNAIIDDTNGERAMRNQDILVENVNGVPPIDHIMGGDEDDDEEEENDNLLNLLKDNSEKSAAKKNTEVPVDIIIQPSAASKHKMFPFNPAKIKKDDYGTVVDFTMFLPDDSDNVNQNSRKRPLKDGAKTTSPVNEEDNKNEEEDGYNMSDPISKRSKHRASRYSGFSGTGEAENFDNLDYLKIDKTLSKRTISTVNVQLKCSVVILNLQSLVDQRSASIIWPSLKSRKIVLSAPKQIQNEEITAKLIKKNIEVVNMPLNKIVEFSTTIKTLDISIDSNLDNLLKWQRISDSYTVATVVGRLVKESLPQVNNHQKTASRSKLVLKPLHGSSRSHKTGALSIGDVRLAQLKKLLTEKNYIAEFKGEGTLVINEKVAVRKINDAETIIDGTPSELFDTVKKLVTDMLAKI

B1: CYC1f EMSA probe (ssRNA)
RNA: CGUUAUUUAUAUUUCAAAUUUUUCU
B2: C15 (ssRNA)
RNA: CCCCCCCCCCCCCCC
B3: G15 (ssRNA)
RNA: GGGGGGGGGGGGGGG
B4: CYC1d EMSA probe (ssRNA)
RNA: AAGAACGUUAUUUAUAUUUCAAAUUUUUCUUUUUU
B5: U15 (ssRNA)
RNA: UUUUUUUUUUUUUUU
B6: A15 (ssRNA)
RNA: AAAAAAAAAAAAAAA
B7: Rna14-Rna15 complex (6H-Rna14-Rna15) (complex, S. cerevisiae)
chain 1: MSSSTTPDLLYPSADKVAEPSDNIHGDELRLRERIKDNPTNILSYFQLIQYLETQESYAKVREVYEQFHNTFPFYSPAWTLQLKGELARDEFETVEKILAQCLSGKLENNDLSLWSTYLDYIRRKNNLITGGQEARAVIVKAFQLVMQKCAIFEPKSSSFWNEYLNFLEQWKPFNKWEEQQRIDMLREFYKKMLCVPFDNLEKMWNRYTQWEQEINSLTARKFIGELSAEYMKARSLYQEWLNVTNGLKRASPINLRTANKKNIPQPGTSDSNIQQLQIWLNWIKWERENKLMLSEDMLSQRISYVYKQGIQYMIFSAEMWYDYSMYISENSDRQNILYTALLANPDSPSLTFKLSECYELDNDSESVSNCFDKCTQTLLSQYKKIASDVNSGEDNNTEYEQELLYKQREKLTFVFCVYMNTMKRISGLSAARTVFGKCRKLKRILTHDVYVENAYLEFQNQNDYKTAFKVLELGLKYFQNDGVYINKYLDFLIFLNKDSQIKTLFETSVEKVQDLTQLKEIYKKMISYESKFGNLNNVYSLEKRFFERFPQENLIEVFTSRYQIQNSNLIKKLELTYMYNEEEDSYFSSGNGDGHHGSYNMSSSDRKRLMEETGNNGNFSNKKFKRDSELPTEVLDLLSVIPKRQYFNTNLLDAQKLVNFLNDQVEIPTVESTKSG
chain 2: MNRQSGVNAGVQNNPPSRVVYLGSIPYDQTEEQILDLCSNVGPVINLKMMFDPQTGRSKGYAFIEFRDLESSASAVRNLNGYQLGSRFLKCGYSSNSDISGVSQQQQQQYNNINGNNNNNGNNNNNSNGPDFQNSGNANFLSQKFPELPSGIDVNINMTTPAMMISSELAKKPKEVQLKFLQKFQEWTRAHPEDAVSLLELCPQLSFVTAELLLTNGICKVDDLIPLASRPQEEASATNNNSVNEVVDPAVLNKQKELLKQVLQLNDSQISILPDDERMAIWDLKQKALRGEFGAF
notes: Rna14, S. cerevisiae; Rna15, S. cerevisiae; The pull-down methods call the prey 'untagged' though the construct carries a His6 tag; also called Rna14–15; source: E. coli BL21 Star (DE3), purified as described previously (Gordon et al., 2011)

Target: T1, Hrp1 (CF IB)
Assay: EMSA; EMSA: 50 nM RNA, 0.25-4.0 uM protein, protein diluted in 10 mM HEPES pH 7.9, 150 mM NaCl, 0.5 mM Mg(OAc)2, plus 1x loading dye (orange G, glycerol, EDTA); 30 min on ice; native 6% acrylamide/TBE PAGE
Settings: protein: recombinant; tags: 6H (6H-Hrp1); label: 5'-FAM

| Binder | binding result |
| --- | --- |
| B1 | binds |
| B2 | no binding |
| B3 | binds |
| B4 | binds |
| B5 | binds |

Target: T2, Cft2
Assay: as above
Settings: protein: recombinant; tags: SII (Cft2-SII) when alone; untagged in CPFpol+Cft2 and CPFcore; label: 5'-FAM

| Binder | binding result |
| --- | --- |
| B1 | binds |
| B2 | no binding |
| B6 | no binding |
| B3 | binds |
| B4 | binds |
| B5 | no binding |

Target: Pap1 (Saccharomyces cerevisiae, UniProt P29468 1-568)
Assay: as above
Settings: protein: recombinant; tags: SII (Pap1-SII) when alone; untagged in CPFpol and CPFcore; label: 5'-FAM

Chain of Pap1 (P29468 whole entry): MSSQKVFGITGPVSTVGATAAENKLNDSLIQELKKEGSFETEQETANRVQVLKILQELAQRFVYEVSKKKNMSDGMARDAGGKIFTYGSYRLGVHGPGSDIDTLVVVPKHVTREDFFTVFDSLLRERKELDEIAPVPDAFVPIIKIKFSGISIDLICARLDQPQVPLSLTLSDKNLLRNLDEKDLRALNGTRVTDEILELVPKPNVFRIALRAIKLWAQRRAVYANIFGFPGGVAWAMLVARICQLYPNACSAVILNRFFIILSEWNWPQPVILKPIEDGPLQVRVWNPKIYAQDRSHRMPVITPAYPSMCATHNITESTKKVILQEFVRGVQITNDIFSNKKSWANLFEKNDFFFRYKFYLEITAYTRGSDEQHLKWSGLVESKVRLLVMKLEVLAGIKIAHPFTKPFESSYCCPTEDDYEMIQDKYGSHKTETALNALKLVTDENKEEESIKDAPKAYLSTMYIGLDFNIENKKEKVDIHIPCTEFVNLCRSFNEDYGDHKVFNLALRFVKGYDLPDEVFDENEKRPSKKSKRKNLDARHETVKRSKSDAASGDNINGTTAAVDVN

| Binder | binding result |
| --- | --- |
| B1 | no binding |
| B2 | no binding |
| B6 | no binding |
| B3 | no binding |
| B4 | no binding |
| B5 | no binding |

Target: T3, CPF_(core): Cft1-Pfs2_(-3C-SII)-Yth1_(-3C-8H)-Fip1-Pap1-Cft2-Ysh1-Mpe1 (S. cerevisiae, UniProt Q06632 1-1357; P42841 1-465; Q06102 1-208; P45976 1-327; P29468 1-568; Q12102 …)
T3 construct: Cft1, S. cerevisiae; Pfs2, S. cerevisiae; Yth1, S. cerevisiae; Fip1, S. cerevisiae; Pap1, S. cerevisiae; Cft2, S. cerevisiae; Ysh1, S. cerevisiae; Mpe1, S. cerevisiae; also called eight-subunit core cleavage and polyadenylation factor complex; source: Sf9, co-expressed from one multi-gene baculovirus construct, purified (StrepTactin, Mono Q, Superose 6); not shown: StrepII, C-terminal, kept; …
Assay: pull-down; Strep-tagged bait proteins and complexes (100 μL at 1.5 μM) immobilised on Streptactin beads; prey CF IA, CF IB, Rna14-Rna15 or Pcf11-Clp1 (20 μL at 4.0 μM) bound 60 min at 4°C; 10 mM HEPES pH 7.9, 150 mM NaCl, 0.5 mM Mg(OAc)2, 0.05% Tween-20; SDS-PAGE, InstantBlue
Settings: both partners purified

| Binder | binding result |
| --- | --- |
| B7 | binds |

Target: T4, CPFpol: Cft1-Pfs2_(-3C-SII)-Yth1_(-3C-8H)-Fip1-Pap1 (S. cerevisiae, UniProt Q06632 1-1357; P42841 1-465; Q06102 1-208; P45976 1-327; P29468 1-568)
T4 construct: Cft1, S. cerevisiae; Pfs2, S. cerevisiae; Yth1, S. cerevisiae; Fip1, S. cerevisiae; Pap1, S. cerevisiae; also called polymerase module; source: Sf9, purified as described previously (Casañal et al., 2017); not shown: StrepII, C-terminal, kept; copies: + + + +
Assay: as above
Settings: both partners purified

| Binder | binding result |
| --- | --- |
| B7 | binds |

Target: T5, CPFpol (no Pap1): Cft1-Pfs2_(-3C-SII)-Yth1_(-3C-8H)-Fip1 (S. cerevisiae, UniProt Q06632 1-1357; P42841 1-465; Q06102 1-208; P45976 1-327)
T5 construct: Cft1, S. cerevisiae; Pfs2, S. cerevisiae; Yth1, S. cerevisiae; Fip1, S. cerevisiae; also called polymerase module without Pap1; source: Sf9, purified as described previously (Casañal et al., 2017); not shown: StrepII, C-terminal, kept; copies: + + +
Assay: as above
Settings: both partners purified

T5 sequence (Q06632 whole entry, chain 1 of 4): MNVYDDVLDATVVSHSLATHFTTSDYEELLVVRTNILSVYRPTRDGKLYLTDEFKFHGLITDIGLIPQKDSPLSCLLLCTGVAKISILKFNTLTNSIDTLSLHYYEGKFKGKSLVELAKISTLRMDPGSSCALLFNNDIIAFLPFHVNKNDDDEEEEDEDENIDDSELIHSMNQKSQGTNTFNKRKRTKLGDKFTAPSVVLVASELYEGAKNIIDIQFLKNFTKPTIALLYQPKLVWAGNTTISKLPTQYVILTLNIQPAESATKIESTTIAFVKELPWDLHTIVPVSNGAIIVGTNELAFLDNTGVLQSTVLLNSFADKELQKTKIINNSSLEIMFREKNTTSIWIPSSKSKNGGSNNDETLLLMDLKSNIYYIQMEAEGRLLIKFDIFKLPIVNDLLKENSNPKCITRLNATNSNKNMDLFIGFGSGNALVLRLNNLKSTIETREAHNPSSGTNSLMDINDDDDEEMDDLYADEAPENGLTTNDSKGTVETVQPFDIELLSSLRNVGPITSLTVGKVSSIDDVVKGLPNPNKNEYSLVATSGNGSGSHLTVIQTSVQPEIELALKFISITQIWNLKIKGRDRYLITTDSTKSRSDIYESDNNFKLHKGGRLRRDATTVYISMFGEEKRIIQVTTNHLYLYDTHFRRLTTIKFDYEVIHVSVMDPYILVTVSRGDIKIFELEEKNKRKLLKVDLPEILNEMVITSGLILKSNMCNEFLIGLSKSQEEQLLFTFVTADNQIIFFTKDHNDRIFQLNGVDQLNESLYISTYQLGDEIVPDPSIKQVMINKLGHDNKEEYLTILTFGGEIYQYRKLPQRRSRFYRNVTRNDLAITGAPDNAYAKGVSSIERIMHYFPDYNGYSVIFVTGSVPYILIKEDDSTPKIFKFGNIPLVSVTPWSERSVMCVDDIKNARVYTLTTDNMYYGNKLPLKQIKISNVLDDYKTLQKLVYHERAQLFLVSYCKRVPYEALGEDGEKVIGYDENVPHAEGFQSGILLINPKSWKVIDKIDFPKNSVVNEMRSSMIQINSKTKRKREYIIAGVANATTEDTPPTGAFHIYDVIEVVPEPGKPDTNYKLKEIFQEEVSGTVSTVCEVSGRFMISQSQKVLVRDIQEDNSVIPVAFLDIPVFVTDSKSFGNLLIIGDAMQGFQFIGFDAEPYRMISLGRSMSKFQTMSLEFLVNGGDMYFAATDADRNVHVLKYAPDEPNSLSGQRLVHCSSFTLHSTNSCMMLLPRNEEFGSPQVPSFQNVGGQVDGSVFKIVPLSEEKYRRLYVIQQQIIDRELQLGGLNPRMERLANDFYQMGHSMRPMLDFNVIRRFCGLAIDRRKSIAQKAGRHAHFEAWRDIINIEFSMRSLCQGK
T5 sequence (P42841 whole entry, chain 2 of 4): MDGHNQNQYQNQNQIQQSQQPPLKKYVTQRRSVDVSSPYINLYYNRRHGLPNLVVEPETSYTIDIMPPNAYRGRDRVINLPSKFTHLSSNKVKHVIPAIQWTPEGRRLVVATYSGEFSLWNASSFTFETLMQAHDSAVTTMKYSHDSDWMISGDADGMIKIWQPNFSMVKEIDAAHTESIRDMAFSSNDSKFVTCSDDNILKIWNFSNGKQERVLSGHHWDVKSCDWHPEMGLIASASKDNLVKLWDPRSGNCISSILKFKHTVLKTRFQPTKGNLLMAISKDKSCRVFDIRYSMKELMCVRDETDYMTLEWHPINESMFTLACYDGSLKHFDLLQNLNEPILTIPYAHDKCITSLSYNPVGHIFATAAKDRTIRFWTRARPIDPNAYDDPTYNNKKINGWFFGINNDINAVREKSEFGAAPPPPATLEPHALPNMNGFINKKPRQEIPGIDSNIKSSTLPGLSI
T5 sequence (Q06102 whole entry, chain 3 of 4): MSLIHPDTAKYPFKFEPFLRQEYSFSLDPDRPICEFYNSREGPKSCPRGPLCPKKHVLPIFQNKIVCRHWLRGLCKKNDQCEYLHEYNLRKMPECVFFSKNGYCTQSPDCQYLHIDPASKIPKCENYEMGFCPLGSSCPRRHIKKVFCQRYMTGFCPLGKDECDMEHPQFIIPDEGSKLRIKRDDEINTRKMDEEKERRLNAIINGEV
T5 sequence (P45976 whole entry, chain 4 of 4): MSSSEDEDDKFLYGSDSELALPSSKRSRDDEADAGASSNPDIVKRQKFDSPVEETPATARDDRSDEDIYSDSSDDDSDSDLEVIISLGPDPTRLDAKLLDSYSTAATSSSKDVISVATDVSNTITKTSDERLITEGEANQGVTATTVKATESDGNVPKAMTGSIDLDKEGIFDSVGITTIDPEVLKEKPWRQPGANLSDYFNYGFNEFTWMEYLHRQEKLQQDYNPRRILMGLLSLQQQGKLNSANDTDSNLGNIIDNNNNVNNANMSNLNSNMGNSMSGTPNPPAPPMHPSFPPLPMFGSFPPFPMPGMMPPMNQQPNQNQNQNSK

| Binder | binding result |
| --- | --- |
| B7 | binds |
